According to patent US20200087364A1 (IMMATICS BIOTECHNOLOGIES, published 2020):

These binders were tested against T1, HLA-A*01:01 (human) (assay: UV-ligand exchange, anti-b2m ELISA).
T1 construct: MHC class I monomer first loaded with a UV-sensitive peptide (not identified) that is cleaved by UV irradiation and exchanged for the tested peptide; captured on streptavidin plates, detected with anti-β2m; also called peptide-receptive MHC molecules
Excerpt: Candidate peptides for T cell based therapies according to the present invention were further tested for their MHC binding capacity (affinity). The individual peptide-MHC complexes were produced by UV-ligand exchange, where a UV-sensitive peptide is cleaved upon UV-irradiation and exchanged with the peptide of interest as analyzed. Only peptide candidates that can effectively bind and stabilize the peptide-receptive MHC molecules prevent dissociation of the MHC complexes. To determine the yield of the exchange reaction, an ELISA was performed based on the detection of the light chain (β2m) of stabilized MHC complexes. The assay was performed as generally described in Rodenko et al. (Rodenko et al., 2006)
96 well MAXISorp plates (NUNC) were coated over night with 2 ug/ml streptavidin in PBS at room temperature, washed 4× and blocked for 1 h at 37° C. in 2% BSA containing blocking buffer. Refolded HLA-A*02:01/MLA-001 monomers served as standards, covering the range of 15-500 ng/ml. Peptide-MHC monomers of the UV-exchange reaction were diluted 100-fold in blocking buffer. Samples were incubated for 1 h at 37° C., washed four times, incubated with 2 ug/ml HRP conjugated anti-β2m for 1 h at 37° C., washed again and detected with TMB solution that is stopped with […]. Absorption was measured at 450 nm.
For KLTDYINANY, the peptide exchange yield was 20 to 50%. In the case of HTMEVTVY, the peptide exchange yield is reported as 50 to 75%. In the case of SLPEFGLTYY, the peptide exchange yield is reported as 20 to 50%. VQPGETYTY gave a peptide exchange yield of 50 to 75%. CYTADNEMGY gave a peptide exchange yield of 50 to 75%. RAVQPGETY showed a peptide exchange yield of 50 to 75%. For MMTDLTSVY, the peptide exchange yield was 50 to 75%. LSAQHRMLA was tested, and the peptide exchange yield was 20 to 50%. With VSDSTTEITY the peptide exchange yield was 50 to 75%. Binder NVKEAPTEY has a peptide exchange yield of 20 to 50%. TQPELSSRY was tested, and the peptide exchange yield was 20 to 50%. In the case of RQAPGPARDY, the peptide exchange yield is reported as 20 to 50%. Work on TSEVEGLAFVSY yielded a peptide exchange yield of 50 to 75%. YHRICELLSDY was tested, and the peptide exchange yield was over 75%. For FTRAFDQLRM, the peptide exchange yield was 50 to 75%. EVLGEEMYAY was tested, and the peptide exchange yield was 20 to 50%. For LTEGHSGNY, the peptide exchange yield was over 75%. EAAPDIMHY was tested, and the peptide exchange yield was 20 to 50%. In the case of KTIQEVAGY, the peptide exchange yield is reported as 20 to 50%. With ITDFGLAKL the peptide exchange yield was 20 to 50%. YLNEWGSRF was tested, and the peptide exchange yield was 20 to 50%. EVTDRNMLAF gave a peptide exchange yield of 50 to 75%. In the case of AQISDTGRY, the peptide exchange yield is reported as 20 to 50%. In the case of SLPEFGLTY, the peptide exchange yield is reported as 20 to 50%. Binder LLEADPFLKY has a peptide exchange yield of over 75%. QSTTGVSHY was tested, and the peptide exchange yield was 50 to 75%. VSSTVHNLY gave a peptide exchange yield of over 75%. KLAGTVFQY gave a peptide exchange yield of 20 to 50%. VQIAKGMNY was tested, and the peptide exchange yield was 50 to 75%. NSDISIPEY was tested, and the peptide exchange yield was 50 to 75%. FSEPFHLIV showed a peptide exchange yield of 50 to 75%. Binder IADNPQLSFY has a peptide exchange yield of over 75%. LAFYYGMY was tested, and the peptide exchange yield was 20 to 50%. KIRAEVLSHY gave a peptide exchange yield of 20 to 50%. For EADPFLKYL, the peptide exchange yield was 20 to 50%. With NDEIDKLTGY the peptide exchange yield was over 75%. In the case of RLAQYTIERY, the peptide exchange yield is reported as 20 to 50%. VSVYNSYPY gave a peptide exchange yield of 20 to 50%. HSIEVFTHY gave a peptide exchange yield of 20 to 50%. Binder QTDINGGSLK has a peptide exchange yield of 50 to 75%. Binder NSDESADSEPHKY has a peptide exchange yield of over 75%. DIPDYLLQY showed a peptide exchange yield of 50 to 75%. YLDSSKPAVY was tested, and the peptide exchange yield was 50 to 75%. For ASWAVLCYY, the peptide exchange yield was 50 to 75%. STALSILLL showed a peptide exchange yield of 20 to 50%. Work on LADTDLGMTF yielded a peptide exchange yield of 20 to 50%. SVTDLIGGKW showed a peptide exchange yield of 20 to 50%. With RMQEGSEVY the peptide exchange yield was 20 to 50%. Binder YLEDRPLSQ has a peptide exchange yield of 20 to 50%. Work on RSDPVSLRY yielded a peptide exchange yield of over 75%. Binder HTDLESPSAVY has a peptide exchange yield of 50 to 75%. In the case of FRGVFVHRY, the peptide exchange yield is reported as 20 to 50%. SQNGQLIHY gave a peptide exchange yield of 50 to 75%. For YTADNEMGYY, the peptide exchange yield was 50 to 75%. SIEVFTHY showed a peptide exchange yield of 50 to 75%. In the case of LLISKAEDY, the peptide exchange yield is reported as 20 to 50%. In the case of LVDGKWQEF, the peptide exchange yield is reported as 20 to 50%. TQKSVQVLAY showed a peptide exchange yield of 20 to 50%. In the case of VDPIGHLY, the peptide exchange yield is reported as 20 to 50%. Work on TVDNANILL yielded a peptide exchange yield of 20 to 50%. For TQRTSFQFY, the peptide exchange yield was 20 to 50%. For LSQDELSKF, the peptide exchange yield was 20 to 50%. SSTDFTFASW showed a peptide exchange yield of 10 to 20%. In the case of AVSSGLFFY, the peptide exchange yield is reported as 20 to 50%. Binder LCAAVLAKY has a peptide exchange yield of 20 to 50%. In the case of GLIEVVTGY, the peptide exchange yield is reported as over 75%. With LLEGEDAHLTQY the peptide exchange yield was 50 to 75%. In the case of GLEYEAPKLY, the peptide exchange yield is reported as 20 to 50%.
